Laboratory results taken from patent US20240261333A1, “NOVEL TARGETS FOR ENHANCING ANTI-TUMOR IMMUNITY” (THE BROAD INSTITUTE, INC., priority 2021, published 2024).

Target: T1, B3GNT2 (Homo sapiens, UniProt Q9NY97)
T1 construct: The respective ORFs of candidate genes [CD274 (NM_014143), MCL1 (NM_021960), JUNB (NM_002229), and B3GNT2 (NM_006577)] were synthesized; expressed in transfected cells; host or cells: A375 melanoma cells (lentiviral ORF overexpression)
T1 sequence (Q9NY97 1-397): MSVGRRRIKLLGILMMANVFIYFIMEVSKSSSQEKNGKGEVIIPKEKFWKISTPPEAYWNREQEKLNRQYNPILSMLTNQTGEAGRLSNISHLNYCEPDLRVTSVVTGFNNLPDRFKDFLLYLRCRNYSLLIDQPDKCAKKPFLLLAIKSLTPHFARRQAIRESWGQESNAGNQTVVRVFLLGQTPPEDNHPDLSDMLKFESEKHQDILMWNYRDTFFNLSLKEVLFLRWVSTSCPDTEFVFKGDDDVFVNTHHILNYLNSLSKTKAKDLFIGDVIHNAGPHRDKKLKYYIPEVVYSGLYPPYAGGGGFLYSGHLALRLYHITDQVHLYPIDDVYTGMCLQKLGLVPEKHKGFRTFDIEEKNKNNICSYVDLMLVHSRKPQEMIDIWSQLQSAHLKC
Assay: Co-IP of FLAG-tagged B3GNT2 followed by mass spectrometry
Format: cell-based
Set-up: C-term IgG / C-term flag: unit not given here
Procedure, shortened: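 FLAG-tagged B3GNT2 immunoprecipitated from cell lysate (HEPES, 1% Triton X-100, 150 mM NaCl) with anti-FLAG versus […], overnight at 4° C, then captured on Protein A/G magnetic beads for 4 h. Two biological replicates per condition. Peptides fractionated and analyzed by nano-LC on an Orbitrap Elite in data-dependent mode.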

[1] = Co-IP followed by mass spectrometry of B3GNT2, C-term tag, FLAG pull-down
[2] = Co-IP followed by mass spectrometry of B3GNT2, C-term tag, IgG pull-down
[3] = Co-IP followed by mass spectrometry of B3GNT2, N-term tag, FLAG pull-down
[4] = Co-IP followed by mass spectrometry of B3GNT2, N-term tag, IgG pull-down

B1: GEMIN4 (protein)
chain: MDLGPLNICEEMTILHGGFLLAEQLFHPKALAELTKSDWERVGRPIVEALREISSAAAHSQPFAWKKKALIIIWAKVLQPHPVTPSDTETRWQEDLFFSVGNMIPTINHTILFELLKSLEASGLFIQLLMALPTTICHAELERFLEHVTVDTSAEDVAFFLDVWWEVMKHKGHPQDPLLSQFSAMAHKYLPALDEFPHPPKRLRSDPDACPTMPLLAMLLRGLTQIQSRILGPGRKCCALANLADMLTVFALTEDDPQEVSATVYLDKLATVISVWNSDTQNPYHQQALAEKVKEAERDVSLTSLAKLPSETIFVGCEFLHHLLREWGEELQAVLRSSQGTSYDSYRLCDSLTSFSQNATLYLNRTSLSKEDRQVVSELAECVRDFLRKTSTVLKNRALEDITASIAMAVIQQKMDRHMEVCYIFASEKKWAFSDEWVACLGSNRALFRQPDLVLRLLETVIDVSTADRAIPESQIRQVIHLILECYADLSLPGKNKVLAGILRSWGRKGLSEKLLAYVEGFQEDLNTTFNQLTQSASEQGLAKAVASVARLVIVHPEVTVKKMCSLAVVNLGTHKFLAQILTAFPALRFVEEQGPNSSATFMVSCLKETVWMKFSTPKEEKQFLELLNCLMSPVKPQGIPVAALLEPDEVLKEFVLPFLRLDVEEVDLSLRIFIQTLEANACREEYWLQTCSPFPLLFSLCQLLDRFSKYWQLPKEKRCLSLDRKDLAIHILELLCEIVSANAETFSPDVWIKSLSWLHRKLEQLDWTVGLRLKSFFEGHFKCEVPATLFEICKLSEDEWTSQAHPGYGAGTGLLAWMECCCVSSGISERMLSLLVVDVGNPEEVRLFSKGFLVALVQVMPWCSPQEWQRLHQLTRRLLEKQLLHVPYSLEYIQFVPLLNLKPFAQELQLSVLFLRTFQFLCSHSCRDWLPLEGWNHVVKLLCGSLTRLLDSVRAIQAAGPWVQGPEQDLTQEALFVYTQVFCHALHIMAMLHPEVCEPLYVLALETLTCYETLSKTNPSVSSLLQRAHEQRFLKSIAEGIGPEERRQTLLQKMSSF
[1]
  C-term flag: 5
[2]
  C-term IgG: 0
[3]
  N-term FLAG: 0
[4]
  N-term IgG: 0

B2: CHCHD3 (protein)
chain: GGTTSTRRVTFEADENENITVVKGIRLSENVIDRMKESSPSGSKSQRYSGAYGASVSDEELKRRVAEELALEQAKKESEDQKRLKQAKELDRERAAANEQLTRAILRERICSEEERAKAKHLARQLEEKDRVLKKQDAFYKEQLARLEERSSEFYRVTTEQYQKAAEEVEAKFKRYESHPVCADLQAKILQCYRENTHQTLKCSALATQYMHCVNHAKQSMLEKGG
[1]
  C-term flag: 15
[2]
  C-term IgG: 11
[3]
  N-term FLAG: 16
[4]
  N-term IgG: 10

B3: EMILIN1 (protein)
chain: ASYPPRGFSLYTGSSGALSPGGPQAQIAPRPASRHRNWCAYVVTRTVSCVLEDGVETYVKYQPCAWGQPQCPQSIMYRRFLRPRYRVAYKTVTDMEWRCCQGYGGDDCAESPAPALGPASSTPRPLARPARPNLSGSSAGSPLSGLGGEGPGESEKVQQLEEQVQSLTKELQGLRGVLQGLSGRLAEDVQRAVETAFNGRQQPADAAARPGVHETLNEIQHQLQLLDTRVSTHDQELGHLNNHHGGSSSSGGSRAPAPASAPPGPSEELLRQLEQRLQESCSVCLAGLDGFRRQQQEDRERLRAMEKLLASVEERQRHLAGLAVGRRPPQECCSPELGRRLAELERRLDVVAGSVTVLSGRRGTELGGAAGQGGHPPGYTSLASRLSRLEDRFNSTLGPSEEQEESWPGAPGGLSHWLPAARGRLEQLGGLLANVSGELGGRLDLLEEQVAGAMQACGQLCSGAPGEQDSQVSEILSALERRVLDSEGQLRLVGSGLHTVEAAGEARQATLEGLQEVVGRLQDRVDAQDETAAEFTLRLNLTAARLGQLEGLLQAHGDEGCGACGGVQEELGRLRDGVERCSCPLLPPRGPGAGPGVGGPSRGPLDGFSVFGGSSGSALQALQGELSEVILSFSSLNDSLNELQTTVEGQGADLADLGATKDRIISEINRLQQEATEHATESEERFRGLEEGQAQAGQCPSLEGRLGRLEGVCERLDTVAGGLQGLREGLSRHVAGLWAGLRETNTTSQMQAALLEKLVGGQAGLGRRLGALNSSLQLLEDRLHQLSLKDLTGPAGEAGPPGPPGLQGPPGPAGPPGSPGKDGQEGPIGPPGPQGEQGVEGAPAAPVPQVAFSAALSLPRSEPGTVPFDRVLLNDGGYYDPETGVFTAPLAGRYLLSAVLTGHRHEKVEAVLSRSNQGVARVDSGGYEPEGLENKPVAESQPSPGTLGVFSLILPLQAGDTVCVDLVMGQLAHSEEPLTIFSGALLYGDPELEHA
[1]
  C-term flag: 3
[2]
  C-term IgG: 0
[3]
  N-term FLAG: 2
[4]
  N-term IgG: 0

B4: PDIA3 (protein)
chain: SDVLELTDDNFESRISDTGSAGLMLVEFFAPWCGHCKRLAPEYEAAATRLKGIVPLAKVDCTANTNTCNKYGVSGYPTLKIFRDGEEAGAYDGPRTADGIVSHLKKQAGPASVPLRTEEEFKKFISDKDASIVGFFDDSFSEAHSEFLKAASNLRDNYRFAHTNVESLVNEYDDNGEGIILFRPSHLTNKFEDKTVAYTEQKMTSGKIKKFIQENIFGICPHMTEDNKDLIQGKDLLIAYYDVDYEKNAKGSNYWRNRVMMVAKKFLDAGHKLNFAVASRKTFSHELSDFGLESTAGEIPVVAIRTAKGEKFVMQEEFSRDGKALERFLQDYFDGNLKRYLKSEPIPESNDGPVKVVVAENFDEIVNNENKDVLIEFYAPWCGHCKNLEPKYKELGEKLSKDPNIVIAKMDATANDVPSPYEVRGFPTIYFSPANKKLNPKKYEGGRELSDFISYLQREATNPPVIQEEKPKKKKKAQEDL
Co-IP with FLAG antibody, C-terminally FLAG-tagged B3GNT2, mass spectrometry count, unit not given
  C-term flag: 24
Co-IP with FLAG antibody, N-terminally FLAG-tagged B3GNT2, mass spectrometry count, unit not given
  N-term FLAG: 14
Co-IP with IgG control antibody, C-terminally FLAG-tagged B3GNT2, mass spectrometry count, unit not given
  C-term IgG: 0
Co-IP with IgG control antibody, N-terminally FLAG-tagged B3GNT2, mass spectrometry count, unit not given
  N-term IgG: 0

B5: MAP4 (protein, UniProt P27816 2-1152, looked up)
Microtubule-associated …: ADLSLADALTEPSPDIEGEIKRDFIATLEAEAFDDVVGETVGKTDYIPLLDVDEKTGNSESKKKPCSETSQIEDTPSSKPTLLANGGHGVEGSDTTGSPTEFLEEKMAYQEYPNSQNWPEDTNFCFQPEQVVDPIQTDPFKMYHDDDLADLVFPSSATADTSIFAGQNDPLKDSYGMSPCNTAVVPQGWSVEALNSPHSESFVSPEAVAEPPQPTAVPLELAKEIEMASEERPPAQALEIMMGLKTTDMAPSKETEMALAKDMALATKTEVALAKDMESPTKLDVTLAKDMQPSMESDMALVKDMELPTEKEVALVKDVRWPTETDVSSAKNVVLPTETEVAPAKDVTLLKETERASPIKMDLAPSKDMGPPKENKKETERASPIKMDLAPSKDMGPPKENKIVPAKDLVLLSEIEVAQANDIISSTEISSAEKVALSSETEVALARDMTLPPETNVILTKDKALPLEAEVAPVKDMAQLPETEIAPAKDVAPSTVKEVGLLKDMSPLSETEMALGKDVTPPPETEVVLIKNVCLPPEMEVALTEDQVPALKTEAPLAKDGVLTLANNVTPAKDVPPLSETEATPVPIKDMEIAQTQKGISEDSHLESLQDVGQSAAPTFMISPETVTGTGKKCSLPAEEDSVLEKLGERKPCNSQPSELSSETSGIARPEEGRPVVSGTGNDITTPPNKELPPSPEKKTKPLATTQPAKTSTSKAKTQPTSLPKQPAPTTIGGLNKKPMSLASGLVPAAPPKRPAVASARPSILPSKDVKPKPIADAKAPEKRASPSKPASAPASRSGSKSTQTVAKTTTAAAVASTGPSSRSPSTLLPKKPTAIKTEGKPAEVKKMTAKSVPADLSRPKSTSTSSMKKTTTLSGTAPAAGVVPSRVKATPMPSRPSTTPFIDKKPTSAKPSSTTPRLSRLATNTSAPDLKNVRSKVGSTENIKHQPGGGRAKVEKKTEAAATTRKPESNAVTKTAGPIASAQKQPAGKVQIVSKKVSYSHIQSKCGSKDNIKHVPGGGNVQIQNKKVDISKVSSKCGSKANIKHKPGGGDVKIESQKLNFKEKAQAKVGSLDNVGHLPAGGAVKTEGGGSEAPLCPGPPAGEEPAISEAAPEAGAPTSASGLNGHPTLSGGGDQREAQTLDSQIQETSI
[1]
  C-term flag: 5
[2]
  C-term IgG: 0
[3]
  N-term FLAG: 0
[4]
  N-term IgG: 0

B6: PPFIBP1 (protein)
chain: MMSDASDMLAAALEQMDGIIAGSKALEYSNGIFDCQSPTSPFMGSLRALHLVEDLRGLLEMMETDEKEGLRCQIPDSTAETLVEWLQSQMTNGHLPGNGDVYQERLARLENDKESLVLQVSVLTDQVEAQGEKIRDLEFCLEEHREKVNATEEMLQQELLSRTSLETQKLDLMAEISNLKLKLTAVEKDRLDYEDKFRDTEGLIQEINDLRLKVSEMDSERLQYEKKLKSTKDELASLKEQLEEKESEVKRLQEKLVCKMKGEGVEIVDRDIEVQKMKKAVESLMAANEEKDRKIEDLRQCLNRYKKMQDTVVLAQGKDGEYEELLNSSSISSLLDAQGFSDLEKSPSPTPVMGSPSCDPFNTSVPEEFHTTILQVSIPSLLPATVSMETSEKSKLTPKPETSFEENDGNIILGATVDTQLCDKLLTSSLQKSSSLGNLKKETSDGEKETIQKTSEDRAPAESRPFGTLPPRPPGQDTSMDDNPFGTRKVRSSFGRGFFKIKSNKRTASAPNLAETEKETAEHLDLAGASSRPKDSQRNSPFQIPPPSPDSKKKSRGIMKLFGKLRRSQSTTFNPDDMSEPEFKRGGTRATAGPRLGWSRDLGQSNSDLDMPFAKWTKEQVCNWLMEQGLGSYLNSGKHWIASGQTLLQASQQDLEKELGIKHSLHRKKLQLALQALGSEEETNHGKLDFNWVTRWLDDIGLPQYKTQFDEGRVDGRMLHYMTVDDLLSLKVVSVLHHLSIKRAIQVLRINNFEPNCLRRRPSDENTIAPSEVQKWTNHRVMEWLRSVDLAEYAPNLRGSGVHGGLMVLEPRFNVETMAQLLNIPPNKTLLRRHLATHFNLLIGAEAQHQKRDAMELPDYVLLTATAKVKPKKLAFSNFGNLRKKKQEDGEEYVCPMELGQASGSASKKGFKPGLDMRLYEEDDLDRLEQMEDSEGTVRQIGAFSEGINNLTHMLKEDDMFKDFAARSPSASITDEDSNV
[1]
  C-term flag: 3
[2]
  C-term IgG: 0
[3]
  N-term FLAG: 2
[4]
  N-term IgG: 0
